Laboratory results taken from patent EP3505186B1, “NUCLEOPHILIC CATALYSTS FOR OXIME LINKAGE” (Takeda Pharmaceutical Company Limited, priority 2010, dated 2012).

How the values were obtained:
FIX chromogenic activity = test: Specific activity of the rFIX conjugate: FIX chromogenic (and clotting) activity and total protein; format: biochemical
Method: The free rFIX was removed by means of anion exchange chromatography (AEC). The reaction mixture was diluted with 15 ml Buffer A (50 mM Hepes, 5 mM CaCl2, pH 7.5) and loaded onto a 20 ml HiPrep QFF 16/10 column (GE Healthcare, Fairfield, CT) pre-equilibrated with Buffer A. The column was then eluted with Buffer B (50 mM Hepes, 1 M NaCl, 5 mM CaCl2, pH 7.5). Free rFIX elutes at a conductivity between 12-25 mS/cm and the conjugate between 27-45 mS/cm. The conductivity of the conjugate containing fractions was subsequently raised to 190 mS/cm with Buffer C (50 mM Hepes, 5M NaCl, 5 mM CaCl2, pH 6.9) and loaded onto a 20 ml HiPrep Butyl FF 16/10 column (GE Healthcare, Fairfield, CT) pre-equilibrated with Buffer D (50 mM Hepes, 3 M NaCl, 5 mM CaCl2, pH 6.9). Free aminooxy-PSA reagent was washed out within 5 CV Buffer D. Subsequently the conjugate is eluted with 100 % Buffer E (50 mM Hepes, 5 mM CaCl2, pH 7.4). The conjugate containing fractions were concentrated by UF/DF using Vivaspin 15R 10 kD centrifugal filtrator. The final diafiltration step was performed against histidine buffer, pH 7.2 containing 150 mM NaCl and 5 mM CaCl2. The preparation was analytically characterized by measuring total protein (Bradford) and FIX chromogenic activity.
The free rFIX is removed by means of anion exchange chromatography (AEC). The reaction mixture is diluted with appropriate amounts of Buffer A (50 mM Hepes, 5 mM CaCl2, pH 7.5) to correct the solutions conductivity and pH prior to load onto a 20 ml HiPrep QFF 16/10 column (GE Healthcare, Fairfield, CT) pre-equilibrated with buffer A. Then the column is eluted with Buffer B (50 mM Hepes, 1 M NaCl, 5 mM CaCl2, pH 7.5). Free rFIX is eluted by a step gradient using 25 % of Buffer B, which results in a conductivity between 12-25 mS/cm in the obtained fraction and the conjugate using a step gradient of 50 % Buffer B, which results in a conductivity between between 27-45 mS/cm in the conjugate fraction. […] Free aminooxy-PSA reagent is washed out within 5 CV Buffer D. Subsequently, the conjugate is eluted with 100 % Buffer E (50 mM Hepes, 5 mM CaCl2, pH 7.4). The conjugate containing fractions are concentrated by UF/DF using a 10 kD membrane made of regenerated cellulose (88 cm2, cut-off 10 kD, Millipore). The final diafiltration step is performed against L-histidine buffer, pH 7.2 containing 150 mM NaCl and 5 mM CaCl2. The preparation is analytically characterized by measuring total protein (Bradford and BCA procedure) and FIX chromogenic- and clotting activity. For the PSA-rFIX conjugate a specific activity of > 50 % in comparison to native rFIX is determined.
The free rFIX was removed by means of anion exchange chromatography (AEC). […]

[1] = Specific activity of the EPO conjugate: biological activity by methods known in the art and total protein (Bradford)
[2] = Specific activity of the interferon-gamma conjugate: biological activity by methods known in the art and total protein (Bradford)
Method: (§1) The free Interferon-gamma is removed by means of cation exchange chromatography (CEC). The reaction mixture is diluted with 20 ml Buffer A (50 mM Hepes, pH 6.5) and loaded onto a 20 ml HiPrep SPFF 16/10 column (GE Healthcare, Fairfield, CT) pre-equilibrated with Buffer A. Then the column is eluted with Buffer B (50 mM Hepes, 1 M NaCl, pH 6.5). Free interferon-gamma is eluted by washing the column with 25 % Buffer B and the conjugate at 50 % Buffer B. The conductivity of the conjugate containing fractions is subsequently raised to -190 mS/cm with Buffer C (50 mM Hepes, 5 M NaCl, pH 6.9) and loaded onto a 20 ml HiPrep Butyl FF 16/10 column (GE Healthcare, Fairfield, CT) pre-equilibrated with Buffer D (50 mM Hepes, 3 M NaCl, pH 6.9). Free PSA-reagent is washed out within 5 CV Buffer D. Subsequently, the conjugate is eluted with 100 % Buffer E (50 mM Hepes, pH 6.9). The conjugate containing fractions are concentrated by UF/DF using a 10 kD membrane made of regenerated cellulose (88 cm2, cut-off 10 kD, Millipore). The final diafiltration step is performed against histidine buffer, pH 6.9 containing 150 mM NaCl. The preparation is analytically characterized by measuring total protein (Bradford) and biological activity according to methods known in the art. For the PSA-Interferon-gamma conjugate a specific activity of > 50 % in comparison to native Interferon-gamma is determined. The conjugate is additionally analytically characterized by Size Exclusion HPLC using a Agilent 1200 HPLC system equipped with a Shodex KW 803 column under conditions as previously described (Kolarich et al, Transfusion 2006;46:1959-77). It is shown that the preparation contains no free Interferon gamma.
as §1, with “free interferon gamma” for “free Interferon-gamma”, “10 kD /” for “10 kD,”, “the PSAinterferon-gamma” for “the PSA-Interferon-gamma”, “native interferon-gamma” for “native Interferon-gamma”, “free interferon-gamma.” for “free Interferon gamma.”
The free interferon gamma is removed by means of cation exchange chromatography (CEC). […]

Molecule: PSA-rFIX conjugate: rFIX polysialylated via oxidized carbohydrate with 20 kD aminooxy-PSA reagent, m-toluidine as catalyst
- specific activity in comparison to native rFIX (FIX chromogenic activity; Reference Example 11 Method 1 (oxidation, UF/DF, then m-toluidine and 20 kD aminooxy-PSA), FIX chromogenic activity, Bradford): > 50%
- specific activity in comparison to native rFIX (FIX chromogenic activity; Reference Example 11 Method 2 (oxidation, UF/DF, then 10 mM m-toluidine and 20 kD aminooxy-PSA), FIX chromogenic- and clotting activity, Bradford and BCA): > 50%
- specific activity in comparison to native rFIX (FIX chromogenic activity; Reference Example 11 Method 3 (simultaneous periodate, m-toluidine, 20 kD aminooxy-PSA), FIX chromogenic activity, Bradford): > 50%
- specific activity in comparison to native rFIX (FIX chromogenic activity; Reference Example 11 Method 4 (simultaneous, 2 mg rFIX / ml), FIX chromogenic- and clotting activity, Bradford and BCA): > 50%

Molecule: PSA-EPO conjugate: erythropoietin polysialylated with 20 kD aminooxy-PSA reagent, m-toluidine as catalyst
- specific activity in comparison to native EPO ([1]; Reference Example 18 Method 1, alternative procedure (oxidation, then m-toluidine and 20 kD aminooxy-PSA, 5-fold)): > 50%
- specific activity in comparison to native EPO ([1]; Reference Example 18 Method 3, alternative procedure (simultaneous, 20 kD aminooxy-PSA, 5-fold)): > 50%

Molecule: PEG-EPO conjugate: EPO PEGylated with a linear 20 kD PEGylation reagent containing an aminooxy group, m-toluidine as catalyst
- specific activity in comparison to native EPO ([1]; Reference Example 32 Method 1, alternative (oxidation, then m-toluidine and 20 kD aminooxy-PEG, 5-fold)): > 50%
- specific activity in comparison to native EPO ([1]; Reference Example 32 Method 3, alternative (simultaneous, 20 kD aminooxy-PEG, 5-fold)): > 50%

B1: PSA-Interferon-gamma conjugate: interferon-gamma polysialylated with 20 kD aminooxy-PSA reagent, m-toluidine as catalyst (conjugate, UniProt P01579 24-161, looked up)
Interferon gamma: QDPYVKEAENLKKYFNAGHSDVADNGTLFLGILKNWKEESDRKIMQSQIVSFYFKLFKNFKDDQSIQKSVETIKEDMNVKFFNSNKKKRDDFEKLTNYSVTDLNVQRKAIHELIQVMAELSPAAKTGKRKRSQMLFRG
modifications: polysialic acid 20 kD
notes: interferon-gamma polysialylated with 20 kD aminooxy-PSA reagent, m-toluidine as catalyst
- specific activity in comparison to native interferon-gamma ([2]; Reference Example 27 Method 1 (oxidation, then m-toluidine and 20 kD aminooxy-PSA, 5-fold)): > 50%
- specific activity in comparison to native interferon-gamma ([2]; Reference Example 27 Method 2 (simultaneous, 20 kD aminooxy-PSA, 5-fold)): > 50%
- specific activity in comparison to native interferon-gamma ([2]; Reference Example 27 Method 3 (simultaneous, 20 kD aminooxy-PSA, 5-fold)): > 50%

B2: PEG-interferon-gamma conjugate: interferon-gamma PEGylated with a linear 20 kD aminooxy PEGylation reagent, m-toluidine as catalyst (conjugate, UniProt P01579 24-161, looked up)
Interferon gamma: QDPYVKEAENLKKYFNAGHSDVADNGTLFLGILKNWKEESDRKIMQSQIVSFYFKLFKNFKDDQSIQKSVETIKEDMNVKFFNSNKKKRDDFEKLTNYSVTDLNVQRKAIHELIQVMAELSPAAKTGKRKRSQMLFRG
modifications: PEG 20 kD
notes: interferon-gamma PEGylated with a linear 20 kD aminooxy PEGylation reagent, m-toluidine as catalyst
- specific activity in comparison to native Interferon gamma ([2]; Reference Example 41 Method 1 (oxidation, then m-toluidine and 20 kD aminooxy-PEG, 5-fold)): > 50%
- specific activity in comparison to native interferon-gamma ([2]; Reference Example 41 Method 3 (simultaneous, 20 kD aminooxy-PEG, 5-fold)): > 50%
